This is an account of results in patent US20070189962A1 (GOV OF US AS REPRESENTED BY THE SEC OF HEALTH, published 2007).

Numbering of substitutions follows the chain as printed.

Test [1] concerns the target mesothelin (UniProt Q13421). In words: cell-based or functional assay.
The target in test [2] is CD22 (human) (UniProt P20273). In words: cell-based or functional assay.
Test [3] has as its target T1, CD22 (human, UniProt P20273 20-847).
T1 construct: whole, on cells; also called native CD22(αβ) on Daudi cells; CD22 antigen
T1 sequence (looked up): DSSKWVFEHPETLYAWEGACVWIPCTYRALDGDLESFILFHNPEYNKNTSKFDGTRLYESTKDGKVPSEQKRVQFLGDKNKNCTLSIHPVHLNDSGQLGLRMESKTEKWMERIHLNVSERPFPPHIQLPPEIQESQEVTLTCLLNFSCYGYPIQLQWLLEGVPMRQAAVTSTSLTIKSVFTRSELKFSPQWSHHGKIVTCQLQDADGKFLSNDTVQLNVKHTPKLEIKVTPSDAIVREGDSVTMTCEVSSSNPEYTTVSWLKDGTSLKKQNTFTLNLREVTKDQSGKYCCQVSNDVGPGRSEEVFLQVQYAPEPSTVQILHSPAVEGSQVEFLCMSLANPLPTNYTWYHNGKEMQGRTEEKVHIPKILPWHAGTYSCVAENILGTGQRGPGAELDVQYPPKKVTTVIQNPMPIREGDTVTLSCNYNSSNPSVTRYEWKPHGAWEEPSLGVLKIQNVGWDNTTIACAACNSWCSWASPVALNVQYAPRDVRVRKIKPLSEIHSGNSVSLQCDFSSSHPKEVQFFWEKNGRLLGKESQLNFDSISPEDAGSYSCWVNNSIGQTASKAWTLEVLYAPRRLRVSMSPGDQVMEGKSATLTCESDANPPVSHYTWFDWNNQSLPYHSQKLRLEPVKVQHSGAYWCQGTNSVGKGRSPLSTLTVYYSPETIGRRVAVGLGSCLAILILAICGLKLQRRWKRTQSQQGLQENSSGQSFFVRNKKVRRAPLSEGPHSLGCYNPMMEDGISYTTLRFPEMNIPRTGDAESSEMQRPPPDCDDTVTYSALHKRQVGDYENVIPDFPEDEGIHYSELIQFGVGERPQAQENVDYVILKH
Kind of test: monoclonal phage FACS on Daudi cells.

Test [4] deals with T1, CD22. Kind of test: monoclonal phage FACS on Daudi cells; HA22 is the reference that the mutants exceed.

Sequence of mesothelin (Q13421 other isoform, or with tags, fused parts or gaps limits assumed): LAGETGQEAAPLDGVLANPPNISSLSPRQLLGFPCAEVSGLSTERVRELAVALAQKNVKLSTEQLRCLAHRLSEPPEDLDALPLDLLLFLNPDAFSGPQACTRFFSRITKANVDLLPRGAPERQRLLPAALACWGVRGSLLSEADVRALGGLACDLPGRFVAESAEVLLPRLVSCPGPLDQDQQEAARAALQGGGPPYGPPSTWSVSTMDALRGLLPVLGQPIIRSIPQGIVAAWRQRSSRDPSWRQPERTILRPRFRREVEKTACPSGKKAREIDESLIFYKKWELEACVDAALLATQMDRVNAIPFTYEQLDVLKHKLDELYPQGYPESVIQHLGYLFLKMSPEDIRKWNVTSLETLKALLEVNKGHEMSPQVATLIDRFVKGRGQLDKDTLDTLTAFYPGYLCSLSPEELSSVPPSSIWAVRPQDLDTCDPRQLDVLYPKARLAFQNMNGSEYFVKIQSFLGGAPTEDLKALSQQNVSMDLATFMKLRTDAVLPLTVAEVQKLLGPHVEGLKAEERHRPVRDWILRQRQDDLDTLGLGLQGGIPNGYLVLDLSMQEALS

In test [1], SS1P (R490A) gave an IC50, inhibition of protein synthesis, A431/K5 of 0.45 ng/mL and an IC50, inhibition of protein synthesis, A1847 of 1.5 ng/mL.

Take HA22 RFB4 (scFv)-PE38 immunotoxin: in test [2], the Cytotoxic Activity (IC50), Daudi (30 min incubation) worked out at 5.6 ng/mL; the Cytotoxic Activity (IC50), Daudi, 16 hr, protein synthesis worked out at 0.52 ng/mL; the Cytotoxic Activity (IC50), Namalwa came to 1.2 ng/mL; the Cytotoxic Activity (IC50), Ramos was 4.9 ng/mL.

Take RFB4 (dsFv)-PE38: in test [2], the Cytotoxicity activity (IC50), protein synthesis inhibition, Daudi is 2.8 ng/mL and the Cytotoxicity activity (IC50), protein synthesis inhibition, Raji stood at 2.5 ng/mL.

In test [1], SS1P registered an IC50, inhibition of protein synthesis, A431/K5 of 0.7 ng/mL and an IC50, inhibition of protein synthesis, A1847 of 4 ng/mL.

In test [2], HA22 (R490A) came in with a Cytotoxicity activity (IC50), protein synthesis inhibition, Daudi of 0.2 ng/mL and a Cytotoxicity activity (IC50), protein synthesis inhibition, Raji of 0.3 ng/mL.

B1: B5 (scFv displayed on phage) (scFv, V domains shown)
VH: EVQLVESGGGLVKPGGSLKLSCAASGFAFSIYDMSWVRQTPEKRLEWVAYISSGGGTTYYPDTVKGRFTISRDNAKNTLYLQMSSLKSEDTAMYYCARHSGYGTHWGVLFAYWGQGTLVTVSA
VL: DIQMTQTTSSLSASLGDRVTISCRASQDIHGYLNWYQQKPDGTVKLLIYYTSILHSGVPSRFSGSGSGTDYSLTISNLEQEDFATYFCQQGNTLPWTFGGGTKLEIK
notes: also called mutant B5; L-CDR1 HG mutant of HA22
With B1, in test [3], the binding result is reported as “binds”.

B2: B8 (scFv displayed on phage) (scFv, V domains shown)
VH: B1 VH
VL: B1 VL with H30R
notes: also called L-CDR1 RG mutant of HA22
Consider B2, for which the binding result in test [3] is reported as “binds”.

B3: D8 (scFv displayed on phage) (scFv, V domains shown)
VH: B1 VH
VL: B1 VL with H30A, G31R
notes: also called L-CDR1 AR mutant of HA22
For the molecule B3, in test [3], the binding result is “binds”.

B4: HA22 (scFv displayed on phage) (scFv, V domains shown)
VH: B1 VH
VL: B1 VL with H30S, G31N
notes: also called starting molecule; RFB4 with SSY of H-CDR3 mutated to THW
On to B4, for which, in test [4], the binding result is “binds”.

B5: E6 (scFv displayed on phage) (scFv, V domains shown)
VH: B1 VH
VL: B1 VL with H30G, G31R
notes: also called L-CDR1 GR mutant of HA22
Consider B5, for which the binding result in test [3] is reported as “binds”.
